From PMC3820850

Assays:
[1] = target: native glycophorin-A extracted from human erythrocytes, chemically biotinylated (human) (UniProt P02724); assay: SPR; kinetic; biotinylated GYPA immobilised on streptavidin chip; analyte injected at 100 μl/min; 37 °C, HBS-EP; nonlinear fit of association and dissociation phases
[2] = target: native glycophorin-A extracted from human erythrocytes, chemically biotinylated (human) (UniProt P02724); assay: SPR; equilibrium; biotinylated GYPA immobilised on streptavidin chip, biotinylated Cd4 tag as reference; SEC-separated analyte injected at 20 μl/min; BIAcore T100, 37 °C, HBS-EP; steady-state 1:1 fit
[3] = target: PfEBA175 FL (entire ectodomain of P. falciparum 3D7 EBA175), Cd4-tagged and enzymatically biotinylated (P. falciparum (3D7)); assay: SPR; homophilic; biotinylated PfEBA175 FL immobilised on streptavidin chip, soluble PfEBA175 FL as analyte; quantified from the dissociation phase; 37 °C, HBS-EP
[4] = target: PfEBA175 FL (entire ectodomain of P. falciparum 3D7 EBA175), Cd4-tagged and enzymatically biotinylated (P. falciparum (3D7)); assay: SPR; equilibrium; biotinylated PfEBA175 FL immobilised, serial dilutions of PfEBA175 FL or RII injected; responses at equilibrium as a fraction of calculated Rmax; 37 °C, HBS-EP

Substance: PfEBA175 FL (entire ectodomain of P. falciparum 3D7 EBA175), Cd4- and hexa-His-tagged, soluble (domain or fragment)
- koff [1]: 0.0968 s⁻¹
- kon [1]: 860000 M⁻¹ s⁻¹
- Kd [2]: 260 nM
- koff [3]: 0.04 s⁻¹

Substance: PfEBA175 RII (region II, tandem DBL domains F1 and F2), Cd4- and hexa-His-tagged, soluble (domain or fragment)
- fold weaker binding affinity to PfEBA175 FL than that of PfEBA175 FL [4]: 70 fold
- Kd [2]: 2520 nM
